Experimental data as given in patent publication US20240059769A1 (BIOLOJIC DESIGN, published 2024).
Where two headings read alike, the source gives them in different places.

Tests used:
recombinant human IL-13 [1] = target: T1, recombinant human IL-13 (human, UniProt P35225 35-146); assay: cell-based or functional assay
human TSLP [2] = target: T2, human TSLP (human, UniProt Q969D9 29-159); assay: cell-based or functional assay
recombinant human IL-13 [3] = target: T1, recombinant human IL-13; assay: SPR
human TSLP [4] = target: T2, human TSLP; assay: SPR
human TSLP [5] = target: T2, human TSLP; assay: SPR (Biacore T200), antibody captured, cytokine analyte 30-0.153 nM
Description: CMS chip was coated with human antibody capture kit to obtain 3000-5000 RU and the antibody, served as the capture, was injected at a flow rate of 10 ul/ml to obtain 250-350 RU.

hTSLP-His [6] = target: T3, hTSLP-His (human, UniProt Q969D9 29-159, limits assumed); assay: cell-based or functional assay
[7] = target: T4, recombinant cynomolgus monkey IL-13 (cynomolgus monkey, UniProt Q0PW92 21-132); assay: SPR
T4 construct: bought; also called rc-IL-13; cIL-13
T4 sequence (Q0PW92 entry or part of it): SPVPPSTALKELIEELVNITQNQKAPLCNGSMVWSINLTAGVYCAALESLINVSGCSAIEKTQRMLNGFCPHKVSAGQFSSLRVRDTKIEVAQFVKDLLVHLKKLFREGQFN

[8] = target: T5, cynomolgus monkey (cyno) TSLP (cynomolgus monkey, UniProt A0A7N9CAT7 29-159); assay: SPR
T5 construct: also called cTSLP; cynomolgus TSLP
T5 sequence (A0A7N9CAT7 entry or part of it): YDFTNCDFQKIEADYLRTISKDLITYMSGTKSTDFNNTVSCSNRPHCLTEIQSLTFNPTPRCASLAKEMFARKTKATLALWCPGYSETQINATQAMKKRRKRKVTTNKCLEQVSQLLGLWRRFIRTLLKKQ

recombinant human IL-13 [9] = target: T1, recombinant human IL-13; assay: cell-based or functional assay; remark: listed apart in the source
hTSLP-His [10] = target: T3, hTSLP-His; assay: cell-based or functional assay; remark: listed apart in the source
hTSLP-His [11] = target: T3, hTSLP-His; assay: competition ELISA: antibody titrated and pre-incubated with 7 nM TSLP-His, then on a plate coated with 33.001 (Tezepelumab), anti-His detection; row head on the sheet reads EC50, unit from the axis
hTSLP-His [12] = target: T3, hTSLP-His; assay: competition ELISA, 7 nM TSLP-His pre-incubated with antibody; competitor Tezepelumab coated
[13] = target: T5, cynomolgus monkey (cyno) TSLP; assay: SPR; remark: listed apart in the source
[14] = target: T4, recombinant cynomolgus monkey IL-13; assay: SPR; remark: listed apart in the source
human TSLP [15] = target: T2, human TSLP; assay: SPR (Biacore T200), antibody captured, hTSLP as analyte 0.231-5.926 nM
recombinant human IL-13 [16] = target: T1, recombinant human IL-13; assay: SPR (Biacore T200), antibody captured, hIL-13 as analyte 0.35-8.89 nM
recombinant human IL-13 [17] = target: T1, recombinant human IL-13; assay: SPR; remark: listed apart in the source
human TSLP [18] = target: T2, human TSLP; assay: SPR; remark: listed apart in the source
hTSLP-His [19] = target: T3, hTSLP-His; assay: competition ELISA: antibody titrated and pre-incubated with 7 nM TSLP-His, then on a plate coated with 33.001 (Tezepelumab), anti-His detection; row head on the sheet reads EC50, unit from the axis; remark: listed apart in the source
recombinant human IL-13 [20] = target: T1, recombinant human IL-13; assay: SPR (Biacore T200), antibody captured, hIL-13 as analyte 0.35-5.93 nM
human TSLP [21] = target: T2, human TSLP; assay: SPR (Biacore T200), antibody captured, hTSLP as analyte 0.231-5.926 nM; remark: listed apart in the source

T1 sequence (P35225 35-146 limits assumed): as the sequence (Q0PW92 entry or part of it) above, with S1G, K10R, V42M, N67S, R83H, V100L counted along it

IC50 CD23 (recombinant human IL-13 [1]) [pM] | IC50 TARC (human TSLP [2]) [pM] | IC50 [pM], STAT5 phosphorylation inhibition in MUTZ5 cells (hTSLP-His [6]) [pM] | HEK-IL-13 [nM] (IC50, STAT6 reporter) (recombinant human IL-13 [9]) | IC50, pSTAT5 in MUTZ-5 cell line (hTSLP-His [10]) [pM] | IC50 (hTSLP-His [12]) [pM] | Kd [13] [pM] | koff [13] [s⁻¹] | kon [13] [M⁻¹ s⁻¹] | Kd [14] [pM] | koff [14] [s⁻¹] | kon [14] [M⁻¹ s⁻¹] | Kd (recombinant human IL-13 [17]) [pM] | koff (recombinant human IL-13 [17]) [s⁻¹] | kon (recombinant human IL-13 [17]) [M⁻¹ s⁻¹] | Kd (human TSLP [18]) [pM] | koff (human TSLP [18]) [s⁻¹] | kon (human TSLP [18]) [M⁻¹ s⁻¹] | Binder | other results
172 | 356 | 27.2 | 0.0487 | – | – | – | – | – | – | – | – | – | – | – | – | – | – | BDG38.094 (antibody, V domains shown, IgG1) VH: QMQLVESGGGVVQPGRSLRLSCAASGFAFRTYGMHWVRQAPGKGLEWVAVIWDDGSNTHYADSVKGRFTITRDNSKNTLNLQMNSLRAEDTAVYYCVRAPQWYLTAEAFDLWGQGTMVTVSS VL: SYVLTQPPSVSVAPGETASITCGGNLIGAYLVHWYQQKPGQAPLLVIYDDVDRPARIPERFSGSNSGNTATLTISRVEAGDEADYYCQVWDHNSNHMVFGGGTKLTVL | Kd (recombinant human IL-13 [3]): 13.8 pM; koff (recombinant human IL-13 [3]): 9.36e-05 s⁻¹; kon (recombinant human IL-13 [3]): 6.77e+06 M⁻¹ s⁻¹; Kd (human TSLP [4]): 0.0127 pM; koff (human TSLP [4]): 1.82e-07 s⁻¹; kon (human TSLP [4]): 1.44e+07 M⁻¹ s⁻¹; Kd (human TSLP [5]): < 1 pM; Kd [7]: 270 pM; koff [7]: 0.006 s⁻¹; kon [7]: 2.22e+07 M⁻¹ s⁻¹; Kd [8]: 2.75 pM; koff [8]: 3.18e-05 s⁻¹; kon [8]: 1.16e+07 M⁻¹ s⁻¹
71.8 | 1960 | 21.8 | 0.0253 | ~13 | 3630 | 3.97 | 4.08e-05 | 1.03e+07 | 901 | 0.0141 | 1.56e+07 | 31.7 | 0.000385 | 1.22e+07 | 2.21 | 3.27e-05 | 1.48e+07 | BDG38.079 (antibody, V domains shown) VH: QMQLVESGGGVVQPGRSLRLSCAASGFAFRTYGMHWVRQAPGKGLEWVAVIWYDGSNTHYADSVKGRFTITRDNSKNTLNLQMNSLRAEDTAVYYCVRAPQWYLTAEAFDLWGQGTMVTVSS VL: SYVLTQPPSVSVAPGETATITCGGNMIGGYLVHWYQQKPGQAPLLVIYDDVDRPDRIPERFSGSNSGNTATLTISRVEAGDEADYYCQVWDHDSNTMVFGGGTKLTVL | IC50 (hTSLP-His [11]): 3630 pM; Kd (human TSLP [15]): 2.21 pM; koff (human TSLP [15]): 3.27e-05 s⁻¹; kon (human TSLP [15]): 1.48e+07 M⁻¹ s⁻¹; Kd (recombinant human IL-13 [16]): 31.7 pM; koff (recombinant human IL-13 [16]): 0.000385 s⁻¹; kon (recombinant human IL-13 [16]): 1.22e+07 M⁻¹ s⁻¹
158 | 2770 | 46.7 | 0.0241 | ~35 | 3660 | 4.16 | 4.6e-05 | 1.11e+07 | 733 | 0.00644 | 8.78e+06 | 29.5 | 0.000249 | 8.43e+06 | 3.34 | 5.05e-05 | 1.51e+07 | BDG38.074 (antibody, V domains shown, also called BDG38.74) VH: QMQLVESGGGVVQPGRSLRLSCAASGFAFRTYGMHWVRQAPGKGLEWVAVIWDDGSNTHYADSVKGRFTITRDNSKNTLNLQMNSLRAEDTAVYYCVRAPQWYLTAEAFDLWGQGTMVTVSS VL: SYVLTQPPSVSVAPGQTATITCGGNMIGAYLVHWYQQKPGQAPLLVVYDDVDRPNRIPERFSGSNSGNTATLTISRVEAGDEADYYCQVWDHNTDKMVFGGGTKLTVL | IC50 (hTSLP-His [19]): 3660 pM; Kd (recombinant human IL-13 [20]): 29.5 pM; koff (recombinant human IL-13 [20]): 0.000249 s⁻¹; kon (recombinant human IL-13 [20]): 8.43e+06 M⁻¹ s⁻¹; Kd (human TSLP [21]): 3.34 pM; koff (human TSLP [21]): 5.05e-05 s⁻¹; kon (human TSLP [21]): 1.51e+07 M⁻¹ s⁻¹
